What all share (assay): phage ELISA
In general terms: In an ELISA, binding on a coated surface is turned into a signal by an enzyme label.

Assay [1] deals with T1, TNF-beta (human, UniProt P01374 35-205).
T1 construct: also called TNFβ; Tumour Necrosis Factor-beta
T1 sequence (looked up): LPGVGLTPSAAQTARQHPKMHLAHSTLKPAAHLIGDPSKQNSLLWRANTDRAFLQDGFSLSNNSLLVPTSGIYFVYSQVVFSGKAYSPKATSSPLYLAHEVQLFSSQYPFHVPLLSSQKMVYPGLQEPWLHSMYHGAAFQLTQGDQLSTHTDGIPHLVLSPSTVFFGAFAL

Assay [2] concerns the target LIGHT (human, UniProt O43557 74-240, limits assumed).
The target in assay [3] is T2, B Lymphocyte Stimulator, soluble form (human) (human, UniProt Q9Y275 134-285, biotinylated with NHS-biotin where used as biotinylated B Lymphocyte Stimulator).
T2 construct: Coated on plastic, captured on streptavidin plates, amine-coupled to a CM5 chip or free in solution, depending on the assay; also called BLyS; immobilized B Lymphocyte Stimulator

The target in assay [4] is T3, TRAIL (human, UniProt P50591 114-281).
T3 construct: also called TNF-related apoptosis inducing ligand

For assay [5], the target named is T4, TNF-alpha (human, UniProt P01375 77-233).
T4 construct: also called TNFα; TNF-α
T4 sequence (P01375 77-233 limits assumed): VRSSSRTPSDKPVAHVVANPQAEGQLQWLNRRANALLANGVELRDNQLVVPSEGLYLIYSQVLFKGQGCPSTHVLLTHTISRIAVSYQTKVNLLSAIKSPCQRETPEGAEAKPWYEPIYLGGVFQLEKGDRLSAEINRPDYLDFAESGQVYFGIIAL

Sequence of LIGHT (O43557 74-240 limits assumed): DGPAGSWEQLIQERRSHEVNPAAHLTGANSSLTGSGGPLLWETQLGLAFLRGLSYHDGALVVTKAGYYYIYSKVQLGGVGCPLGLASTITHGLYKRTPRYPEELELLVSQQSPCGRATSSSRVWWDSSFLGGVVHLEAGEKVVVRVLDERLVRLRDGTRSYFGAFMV
T3 sequence (P50591 114-281 limits assumed): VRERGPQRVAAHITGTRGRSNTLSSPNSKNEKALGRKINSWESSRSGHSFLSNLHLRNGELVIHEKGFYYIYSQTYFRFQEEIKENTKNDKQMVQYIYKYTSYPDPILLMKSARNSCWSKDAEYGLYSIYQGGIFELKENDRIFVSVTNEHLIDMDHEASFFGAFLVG

B1: I071B03 (scFv)
scFv: QVQLQQSGAEVKKPGASVKVSCKASGYTFTKYTMHWVRQAPGQGPEWMGWINGGSGDTKYSRKFQGRVTITKDTSASAAYMELSSLGSEDTALYYCARATYDPLTGYSFDGFDIWGQGTMVTVSSGGGGSGGGGSGGGGSQSVLTQPASVSGSPGQSITISCTGTSSDVGGYNYVSWYQQHPGKAPKLMIYEGSKRPSGVSNRFSGSKSGNTASLTISGLQAEDEADYYCSSYTTRSTRVFGGGTKLTVLD
For the molecule B1, the binding result is on record as “no binding” in assay [1]; “no binding” in assay [2]; “binds” in assay [3]; “no binding” in assay [4]; “no binding” in assay [5].

B2: I068B04 (scFv)
scFv: QVQLVQSGAEVKKPGSSVKVSCKASGGTVSSRTISWVRQAPGQGLEWMGGSLPPSGAPIYAQKFQGRVAITADALTNTAFMELRSLKSDDTAVYYCARDQGRYLDLWGRGTLVTVSSGGGGSGGGGSGGGGSALPVLTQPPSASATPGQRVTISCSGSSSNIGSNYVYWYQQLPGTAPKVLIYRNNQRPSGVPDRFSGSRSGTSASLAISGLRSEDEADYYCATWDDSLSGPVFGGGTKVTVLG
B2: the binding result in assay [1] was “no binding”; in assay [2] it was “no binding”; in assay [3], “binds”; in assay [4], “no binding”; in assay [5], “no binding”.

B3: I030A10 (scFv)
scFv: QVQLVQSGAEVKKPGSSVKVSCRASGGSFNHAISWVRQAPGRGLEWMGGILPMYGTANYAQKFQGRVTITADKLTNTVYMDLSRLRYEDTAVYYCARELGLSIVGATTGALDMWGRGTLVTVSSGGGGSGGGGSGGGGSAQAVLTQPSSVSGAPGQRVIISCTGSSSNIGPDYDVHWYQQLPGTAPKLLIYGNNNRPSGVPDRFSGSKSGTSASLAITGLQAEDEAHYYCQSYGSSLSGVVFGGGTKVTVLG
For B3, the binding result was “no binding” in assay [1]; “no binding” in assay [2]; “binds” in assay [3]; “no binding” in assay [4]; “no binding” in assay [5].

B4: I026C04 (scFv)
scFv: QVQLVQSGAEVKKPGSSVKVSCRASGGSFNHAISWVRQAPGRGLEWMGGILPMYGTANYAQKFQGRVTITADKLTNTVYMDLSRLRYEDTAVYYCARELGLSIVGATTGALDMWGKGTLVTVSSGGGGSGGGGSGGGGSAQSVLTQPPSVSAAPGQKVTISCSGSSSNIGNNYVSWYQQIPGTAPKLLIYENNKRPSGIPDRFSGSKSGASATLDITGLQTGDEADYYCGTWHSSQVVFGGGTKLTVLG
For the molecule B4, the binding result is “no binding” in assay [1]; “no binding” in assay [2]; “binds” in assay [3]; “no binding” in assay [4]; “no binding” in assay [5].

B5: I025B09 (scFv)
scFv: QVHLVQSGAEVKKPGSSVKVSCRASGGSFNHAISWVRQAPGRGLEWMGGILPMYGTANYAQKFQGRVTITADKLTNTVYMDLSRLRYEDTAVYYCARELGLSIVGATTGALDMWGKGTLVTVSSGGGGSGGGGSGGGGSAQSVLTQPPSVSAAPGQKVTISCSGSSSNIGNNYVSWYQQIPGTAPKLLIYENNKRPSGIPDRFSGSKSGASATLDITGLQTGDEADYYCGTWHSSQVVFGGGTKLTVLG
notes: also called I0025B09
For B5, the binding result in assay [1] was “no binding”; in assay [2], “no binding”; in assay [3], “binds”; in assay [4], “no binding”; in assay [5], “no binding”.

B6: I025B06 (scFv)
scFv: QVQLVQSGAEVKKPGSSVKVSCRASGGSFNHAISWVRQAPGRGLEWMGGILPMYGTANYAQKFQGRVTITADKLTNTVYMDLSRLRYEDTAVYYCARELGLSIVGATTGALDMWGKGTLVTVSSGGGGSGGGGSGGGGSAQSVLTQPPSVSAAPGQKVTISCSGSSSNIGNNYVSWYQQIPGTAPKLLIYENNKRPSGIPDRFSGSKSGASAALDITGLQTGDEADYYCGTWHSSQVVFGGGTKLTVLG
B6: the binding result in assay [1] is reported as “no binding”; in assay [2], “no binding”; in assay [3], “binds”; in assay [4], “no binding”; in assay [5] it was “no binding”.

B7: I003C06 (scFv)
scFv: QVQLVQSGAEVKKPGSSVKVSCRASGGSFNHAISWVRQAPGRGLEWMGGILPMYGTANYAQKFQGRVTITADKLTNTVYMDLSRLRYEDTAVYYCARELGLSIVGATTGALDMWGKGTLVTVSSGGGGSGGGGSGGGGSALPVLTQPPSVSVAPGQTATLTCGGTNFGRQSVHWYQQKPGQAPVLAIYHDDVRPSGIPERLSGSKSGNTATLTISRVEAGDEAAYYCQVWDSGSDVVVFGGGTKLTVLG
For the molecule B7, the binding result is reported as “no binding” in assay [1]; “no binding” in assay [2]; “binds” in assay [3]; “no binding” in assay [4]; “no binding” in assay [5].

B8: I026C04-R (scFv)
scFv: QVQLVQSGAEVKKPGSSVKVSCRASGGSFNRHAISWVRQAPGRGLEWMGGILPMYGTANYAQKFQGRVTITADKLTNTVYMDLSRLRYEDTAVYYCARELGLSIVGATTGALDMWGKGTLVTVSSGGGGSGGGGSGGGGSAQSVLTQPPSVSAAPGQKVTISCSGSSSNIGNNYVSWYQQIPGTAPKLLIYENNKRPSGIPDRFSGSKSGASATLDITGLQTGDEADYYCGTWHSSQVVFGGGTKLTVLG
In the case of B8, the binding result is given as “no binding” in assay [1]; “no binding” in assay [2]; “binds” in assay [3]; “no binding” in assay [4]; “no binding” in assay [5].

B9: I002A01-R (scFv)
scFv: QVQLVQSGAEVKKPGSSVKVSCRASGGSFNRHAISWVRQAPGRGLEWMGGILPMYGTANYAQKFQGRVTITADKLTNTVYMDLSRLRYEDTAVYYCARELGLSIVGATTGALDMWGKGTLVTVSSGGGGSGGGGSGGGGSALPVLTQPPSVSVAPGQTATLTCGGTNFGRQSVHWYQQKPGQAPVLAIYHDDVRPSGIPERLSGSKSGNTATLTISRVEAGDEAAYYCQVWDSGSDVVVFGGGTKLTVLG
For B9, the binding result in assay [1] is “no binding”; in assay [2], “no binding”; in assay [3] it was “binds”; in assay [4] it was “no binding”; in assay [5] it was “no binding”.

B10: I002A01-K (scFv)
scFv: QVQLVQSGAEVKKPGSSVKVSCRASGGSFNKHAISWVRQAPGRGLEWMGGILPMYGTANYAQKFQGRVTITADKLTNTVYMDLSRLRYEDTAVYYCARELGLSIVGATTGALDMWGKGTLVTVSSGGGGSGGGGSGGGGSALPVLTQPPSVSVAPGQTATLTCGGTNFGRQSVHWYQQKPGQAPVLAIYHDDVRPSGIPERLSGSKSGNTATLTISRVEAGDEAAYYCQVWDSGSDVVVFGGGTKLTVLG
For the molecule B10, the binding result in assay [1] is given as “no binding”; in assay [2], “no binding”; in assay [3], “binds”; in assay [4], “no binding”; in assay [5], “no binding”.

B11: I078D02 (scFv)
scFv: QVQLQQSGAEVKKPGASVKVSCKASGYTFTSYGISWVRQAPGQGLEWMGWISAYNGNTNYAQKLQGRVTMTTDTSTSTAYMELRSLRSDDTAVYYCARVYYDILTGYNLFFDYWGKGTMVTVSSGGGGSGGGGSGGGGSQSVLTQPASVSGSPGQSITISCTGTSSDVGGYNYVSWYQQHPGKAPKLMIYEGSKRPSGVSNRFSGSKSGNTASLTISGLQAEDEADYYCSSYTTRSTRVFGGGTKLTVLG
For B11, the binding result in assay [1] is “no binding”; in assay [2] it was “no binding”; in assay [3], “binds”; in assay [4], “no binding”; in assay [5], “no binding”.

B12: I078H08 (scFv)
scFv: QVQLVQSAAEVKKPGASVKVSCKASGYTFTSYGISWVRQAPGQGLEWMGWISAYNGNTNYAQKLQGRVTMTTDTSTSTAYMELRSLRSDDTAVYYCARVYYDILTGYNLFFDYWGRGTTVTVSSGGGGSGGGGSGGGGSQSVLTQPASVSGSPGQSITISCTGTSSDVGGYNYVSWYQQHPGKAPKLMIYEGSKRPSGVSNRFSGSKSGNTASLTISGLQAEDEADYYCSSYTTRSTRVFGGGTKLTVLG
For B12, the binding result in assay [1] is “no binding”; in assay [2], “no binding”; in assay [3] it was “binds”; in assay [4], “no binding”; in assay [5], “no binding”.

B13: I067F05 (scFv)
scFv: QVQLQQSGAEVKKPGSSVKVSCKASGGTFSSYAISWVRQAPGQGLEWMGRIIPIVNMANYAQKFQGRVTLTADKSTGTAYMELTSLRSEDTAVYYCARENYDSLTGYYGAFDIWGKGTMVTVSSGGGGSGGGGSGGGGSQSVLTQPASVSGSPGQSITISCTGTSSDVGGYNYVSWYQQHPGKAPKLMIYEGSKRPSGVSNRFSGSKSGNTASLTISGLQAEDEADYYCSSYTTRSTRVFGGGTKLTVLG
For B13, the binding result in assay [1] is reported as “no binding”; in assay [2], “no binding”; in assay [3], “binds”; in assay [4] it was “no binding”; in assay [5], “no binding”.

These data come from patent publication US20110293610A1 (published 2011).
